From the supplement of paper PMC12764529
± gives the half width of the 95% confidence interval.

Experiments:
[1] = folding stability dG unfold from trypsin proteolysis; higher = more stable
Procedure, shortened: (§1)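 Mini-proteins designed to be under 80 residues and free of cysteine were carried in a PA-tagged cDNA display construct and digested with trypsin and with chymotrypsin. Each protease was applied at 11 threefold-diluted concentrations, alongside a no-protease condition, before sequencing. K50 came from Bayesian fitting of the sequencing counts, and unfolding free energy was obtained by comparing it with a sequence-predicted unfolded-state K50 and a shared folded-state K50, for each protease separately or for both together. Designs were retained only if their AlphaFold2 dimer inter-PAE exceeded 15.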

[2] = folding stability dG unfold from chymotrypsin proteolysis; higher = more stable
Procedure, shortened: as §1

[3] = folding stability dG unfold (combined trypsin and chymotrypsin); higher = more stable
Procedure, shortened: as §1

Sequence	folding stability dG unfold [1] [kcal/mol]	folding stability dG unfold [2] [kcal/mol]	folding stability dG unfold [3] [kcal/mol]
SAGGSAKPKIKITITRNEDGSLLVRITLPDGREVELSVDDIKALEDAGINLDDVEITEVEVSPEDLSAGGSA [r15_955_TrROS_Hall]	3.92 ± 0.12	2.71 ± 0.067	3.36 ± 0.13
SAGGSAKPKRFVALIKLKGPEGKEIAEIPIVISPDKPEVDIDEIAREIAEKLGVEEIEAEIKEIEESAGGSA [r15_333_TrMRF]	0.48 ± 0.13	0.633 ± 0.2	0.498 ± 0.28
SAGGSAKPKVEVEIVDVEFEEVEVNGKKYLVMKMKVKLKETGEYIEVTMVFDLKTNKMYIEVKKLPSAGGSA [r15_528_TrROS_Hall]	3.49 ± 0.29	5.09 ± 0.24	5.17 ± 0.43
SAGGSAKRKVEIEIVLSAEELEEAIKEGKPLSEELQKRIEELLKKAEEAGIDEVRIRIVPPGLPEPSAGGSA [r15_304_TrROS_Hall]	0.89 ± 0.089	1.22 ± 0.036	1.16 ± 0.12
SAGGSAKRKVEIEIYISREELEEAKKNGKEPTAEAQKQIHRIAKRAREEGMDTVEIKIIPPGQPIPSAGGSA [r15_304_TrROS]	-0.0963 ± 0.34	0.785 ± 0.18	0.309 ± 0.28
SAGGSAKTISIIIPFKGLTPEQAIEIAKELEKLLGTKAKIESIPGKGYILVTLELPNKTSYIIIPGSAGGSA [r15_168_TrMRF]	1.81 ± 0.041	2.08 ± 0.039	2 ± 0.053
SAGGSAKTVTVEVTLEDGTKITVTVPEDMSEEERKALAQELAEELREKLRQLRELEKEGKEVRIEPSAGGSA [r15_704_TrROS_Hall]	1.02 ± 0.023	2.72 ± 0.042	2.23 ± 0.051
SAGGSAKVIMFPSLEEALDLAKEAMGHGKPIQIFLPDGYMIEIEVKPDPDGKPKIDIKWRKLPPDDSAGGSA [r15_761_TrROS]	2.02 ± 0.13	2.8 ± 0.074	2.55 ± 0.21
SAGGSAKVIRVKSLEEALKLAEEAKKAGLEVEIKLLPDGSVLITVKPKPKPKVKKVEKKVKLPEGKSAGGSA [r15_761_TrROS_Hall]	0.507 ± 0.074	1.96 ± 0.077	1.36 ± 0.15
SAGGSAKVKIEVIELPPGMTEEELRKLAEEKGLKVEKVDKENLLVKITAKSKEEAEKIKKELEEKLSAGGSA [r15_546_TrROS_Hall]	0.449 ± 0.14	0.748 ± 0.13	0.511 ± 0.27
SAGGSAKVKYKKDKNGNTYPVVEEKKKIKLTVKIKIFDKNGKLVKEITFPANMTLEEIEKEIKKLLSAGGSA [r15_309_TrROS_Hall]	1.16 ± 0.11	1.79 ± 0.11	1.61 ± 0.18
SAGGSAKVVEKDGKLVIELEVPPDMSEEELKKLAEELAKLLPPGAKIEVKYDKETKRVVIVVELKDSAGGSA [r15_210_TrROS_Hall]	1.64 ± 0.12	1.79 ± 0.16	1.79 ± 0.14
SAGGSAKYYYIVAEIDLPNKKVRFVKKVKKGDVEKFKAEIKKAFPGKKIKVKVIEFESEEEAKKAASAGGSA [r15_889_TrMRF]	3.13 ± 0.14	4.373 ± 0.043	4.01 ± 0.088
SAGGSALADRIAELARELGFEPVEIRYDPETGEVYALVRKPGGLLLRMRVEVDDDELHIEIEPLTDSAGGSA [r15_561_TrMRF]	4.34 ± 0.1	5.27 ± 0.058	5.18 ± 0.095
SAGGSALADRIKEIARENGFEPESVQFDPGNGHLMISIEPPDGRGVVVQIDIDNNNLKIQIQPLDDSAGGSA [r15_561_TrROS]	1.2 ± 0.075	0.792 ± 0.099	1.03 ± 0.13
SAGGSALRIPPGEKIKVRNPDNGKPFEFKVTNWQMNPNGNAYFQVEMTSDGKKVKWPIPLDDIEVVSAGGSA [r15_62_TrROS]	-0.397 ± 0.21	0.358 ± 0.37	0.0757 ± 0.28

Sequence	folding stability dG unfold [1] [kcal/mol]	folding stability dG unfold [2] [kcal/mol]	folding stability dG unfold [3] [kcal/mol]
SAGGSAMAPNVRPIPIFIDVPAEPFTRDPDGRIGLTPEELARRLAEEIRARTGAPIDTIVVHFHEPSAGGSA [r15_415_TrMRF]	0.773 ± 0.11	-0.0348 ± 0.18	0.409 ± 0.092
SAGGSAMAYLVRAELEVEGPDGRRERLELVLVAEDLPLEEALAAAREAAAELGAELVSVEVEPLEPSAGGSA [r15_550_TrMRF]	0.858 ± 0.061	2.55 ± 0.039	2.21 ± 0.098
SAGGSAMESFLGAAKEVLSQMEPGEIVLLPLERPDDKPLLVLLDPTTRRLVVFYPDGGYEEFDFPESAGGSA [r15_977_TrMRF]	2.74 ± 0.046	2.9 ± 0.064	2.86 ± 0.079
SAGGSAMFKSPSDKYFEPIAVIDLEKASPETLKALLEENPGKLLVIPKSTGKPRLIPAEELLELLGSAGGSA [r15_904_TrMRF]	0.0892 ± 0.21	-0.154 ± 0.41	0.0646 ± 0.2
SAGGSAMFVVVEVESPEELRELVEEEDPSVFLLPTEDGEERLVVVDPENPENIRVIPLERPELLAPSAGGSA [r15_11_TrMRF]	0.535 ± 0.042	-0.285 ± 0.27	0.27 ± 0.068
SAGGSAMGTLRLGFVTGPDEEGRYEILDVTLEPGEPVLVTLRARFTFPDGDSVEVPFRFVVPPELLSAGGSA [r15_187_TrMRF]	2.78 ± 0.038	3.15 ± 0.048	2.96 ± 0.12
SAGGSAMIEIEINGKKYKIEIVKVEEKDGKVKVKIKIKDKETGKEIEIEIEMPKEELEKLLKEILSSAGGSA [r15_944_TrROS_Hall]	2.79 ± 0.27	3.97 ± 0.28	3.65 ± 0.48
SAGGSAMIKIKLPNGEVAEIELSPDGKKVLIRYKDGSIEEIEIKDGKITKIKPLPNAPPNAEIVEVSAGGSA [r15_709_TrROS_Hall]	1.92 ± 0.029	2.72 ± 0.041	2.47 ± 0.077
SAGGSAMITLEVEVPPGNAEEAAEAVAEELAEKLGVEVTIEKVEVEYDPVTNLTRVPVEIKINPPLSAGGSA [r15_70_JUSTAS]	1.18 ± 0.071	0.557 ± 0.11	0.618 ± 0.24
SAGGSAMITVDPGEKTVTVEIDLPVYKSYTYPGGETKAYPLELPEEEAKKVADEIAEAFKKKLEGESAGGSA [r15_365_JUSTAS]	-0.499 ± 0.25	0.49 ± 0.25	0.134 ± 0.24
SAGGSAMITVKLEGKPVTVEILSREPKGRLVKAQAVVHRPDDGTEKTVSGLLSEEEIEKAIEEALASAGGSA [r15_944_JUSTAS]	-0.917 ± 0.32	0.143 ± 0.11	-0.15 ± 0.12
SAGGSAMKGLSVERVELDGEEVVRIEIETPAGGSETLELSLRDPEAVEAYLAALKAAGVIAEILPESAGGSA [r15_575_JUSTAS]	1.24 ± 0.027	0.713 ± 0.11	1.11 ± 0.14
SAGGSAMKIEITVEKNENGELTITVKIYDKNGKLVKEIKLKVKTEEEAKKALKELAEKLGIEVEPESAGGSA [r15_242_TrROS_Hall]	2.03 ± 0.48	3.67 ± 0.16	3.36 ± 0.44
SAGGSAMKKIKIEVEKKGDEYIVRIKIKNPDGKIEEIEIKLKDEEEAKKLAEELLKEGKIDEIELESAGGSA [r15_575_TrROS_Hall]	2.7 ± 0.18	2.29 ± 0.077	2.57 ± 0.18
SAGGSAMKKTITVTLSYPETGETRTVTVELTDIPESDPEKWKALAEEVAEALAKERGAEVLGIEISSAGGSA [r15_1013_JUSTAS]	4.9 ± 0.14	4.6 ± 0.066	4.72 ± 0.065
